Key:
[1] = molecular target: purified complement component C3
[2] = molecular target: T1, purified human fibrinogen, depleted of fibronectin and plasminogen, P02671
T1 chain 1: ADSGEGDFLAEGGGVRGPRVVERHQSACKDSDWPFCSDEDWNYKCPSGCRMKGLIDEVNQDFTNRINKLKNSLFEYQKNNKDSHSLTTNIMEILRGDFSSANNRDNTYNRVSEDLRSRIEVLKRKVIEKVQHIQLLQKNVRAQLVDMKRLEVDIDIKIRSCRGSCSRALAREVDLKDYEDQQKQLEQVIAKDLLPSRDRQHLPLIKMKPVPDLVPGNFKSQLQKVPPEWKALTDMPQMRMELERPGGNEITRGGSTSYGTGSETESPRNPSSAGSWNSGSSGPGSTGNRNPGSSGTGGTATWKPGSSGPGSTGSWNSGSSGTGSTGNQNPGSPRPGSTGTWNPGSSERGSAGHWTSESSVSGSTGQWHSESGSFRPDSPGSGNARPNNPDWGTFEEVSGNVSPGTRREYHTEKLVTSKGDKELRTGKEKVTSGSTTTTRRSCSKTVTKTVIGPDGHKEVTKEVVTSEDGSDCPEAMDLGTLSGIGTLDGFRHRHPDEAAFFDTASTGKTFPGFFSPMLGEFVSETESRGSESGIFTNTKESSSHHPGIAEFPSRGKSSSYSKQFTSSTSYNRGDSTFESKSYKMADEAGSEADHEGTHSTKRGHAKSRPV
T1 chain 2: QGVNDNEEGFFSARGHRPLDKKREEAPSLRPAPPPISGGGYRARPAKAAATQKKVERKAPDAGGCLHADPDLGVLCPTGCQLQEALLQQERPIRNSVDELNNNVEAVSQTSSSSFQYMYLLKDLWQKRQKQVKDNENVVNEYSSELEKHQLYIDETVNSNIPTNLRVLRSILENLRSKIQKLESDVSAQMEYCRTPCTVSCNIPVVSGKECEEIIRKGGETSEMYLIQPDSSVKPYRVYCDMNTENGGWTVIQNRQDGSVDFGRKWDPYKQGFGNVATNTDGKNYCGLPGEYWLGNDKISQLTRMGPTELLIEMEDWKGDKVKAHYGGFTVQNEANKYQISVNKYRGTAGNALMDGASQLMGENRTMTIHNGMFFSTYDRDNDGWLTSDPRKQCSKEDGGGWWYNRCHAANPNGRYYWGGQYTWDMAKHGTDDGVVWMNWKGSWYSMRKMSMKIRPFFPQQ
T1 chain 3: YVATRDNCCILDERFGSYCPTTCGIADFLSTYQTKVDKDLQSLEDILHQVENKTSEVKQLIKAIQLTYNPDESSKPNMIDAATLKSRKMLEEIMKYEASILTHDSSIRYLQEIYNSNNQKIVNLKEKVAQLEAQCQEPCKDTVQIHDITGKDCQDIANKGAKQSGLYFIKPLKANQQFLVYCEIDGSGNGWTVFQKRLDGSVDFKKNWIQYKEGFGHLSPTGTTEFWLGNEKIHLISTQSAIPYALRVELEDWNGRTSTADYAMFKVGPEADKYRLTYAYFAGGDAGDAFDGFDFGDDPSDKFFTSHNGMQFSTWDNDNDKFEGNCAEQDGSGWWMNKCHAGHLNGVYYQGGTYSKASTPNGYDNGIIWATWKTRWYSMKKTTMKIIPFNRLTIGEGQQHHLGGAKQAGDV

[3] = molecular target: purified human fibronectin, P02751
[4] = molecular target: T2, recombinant human C5a, P01031
T2 chain: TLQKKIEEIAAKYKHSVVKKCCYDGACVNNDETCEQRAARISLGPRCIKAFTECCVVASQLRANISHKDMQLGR

Chain of purified human fibronectin, P02751 (P02751 other isoform, or with tags, fused parts or gaps): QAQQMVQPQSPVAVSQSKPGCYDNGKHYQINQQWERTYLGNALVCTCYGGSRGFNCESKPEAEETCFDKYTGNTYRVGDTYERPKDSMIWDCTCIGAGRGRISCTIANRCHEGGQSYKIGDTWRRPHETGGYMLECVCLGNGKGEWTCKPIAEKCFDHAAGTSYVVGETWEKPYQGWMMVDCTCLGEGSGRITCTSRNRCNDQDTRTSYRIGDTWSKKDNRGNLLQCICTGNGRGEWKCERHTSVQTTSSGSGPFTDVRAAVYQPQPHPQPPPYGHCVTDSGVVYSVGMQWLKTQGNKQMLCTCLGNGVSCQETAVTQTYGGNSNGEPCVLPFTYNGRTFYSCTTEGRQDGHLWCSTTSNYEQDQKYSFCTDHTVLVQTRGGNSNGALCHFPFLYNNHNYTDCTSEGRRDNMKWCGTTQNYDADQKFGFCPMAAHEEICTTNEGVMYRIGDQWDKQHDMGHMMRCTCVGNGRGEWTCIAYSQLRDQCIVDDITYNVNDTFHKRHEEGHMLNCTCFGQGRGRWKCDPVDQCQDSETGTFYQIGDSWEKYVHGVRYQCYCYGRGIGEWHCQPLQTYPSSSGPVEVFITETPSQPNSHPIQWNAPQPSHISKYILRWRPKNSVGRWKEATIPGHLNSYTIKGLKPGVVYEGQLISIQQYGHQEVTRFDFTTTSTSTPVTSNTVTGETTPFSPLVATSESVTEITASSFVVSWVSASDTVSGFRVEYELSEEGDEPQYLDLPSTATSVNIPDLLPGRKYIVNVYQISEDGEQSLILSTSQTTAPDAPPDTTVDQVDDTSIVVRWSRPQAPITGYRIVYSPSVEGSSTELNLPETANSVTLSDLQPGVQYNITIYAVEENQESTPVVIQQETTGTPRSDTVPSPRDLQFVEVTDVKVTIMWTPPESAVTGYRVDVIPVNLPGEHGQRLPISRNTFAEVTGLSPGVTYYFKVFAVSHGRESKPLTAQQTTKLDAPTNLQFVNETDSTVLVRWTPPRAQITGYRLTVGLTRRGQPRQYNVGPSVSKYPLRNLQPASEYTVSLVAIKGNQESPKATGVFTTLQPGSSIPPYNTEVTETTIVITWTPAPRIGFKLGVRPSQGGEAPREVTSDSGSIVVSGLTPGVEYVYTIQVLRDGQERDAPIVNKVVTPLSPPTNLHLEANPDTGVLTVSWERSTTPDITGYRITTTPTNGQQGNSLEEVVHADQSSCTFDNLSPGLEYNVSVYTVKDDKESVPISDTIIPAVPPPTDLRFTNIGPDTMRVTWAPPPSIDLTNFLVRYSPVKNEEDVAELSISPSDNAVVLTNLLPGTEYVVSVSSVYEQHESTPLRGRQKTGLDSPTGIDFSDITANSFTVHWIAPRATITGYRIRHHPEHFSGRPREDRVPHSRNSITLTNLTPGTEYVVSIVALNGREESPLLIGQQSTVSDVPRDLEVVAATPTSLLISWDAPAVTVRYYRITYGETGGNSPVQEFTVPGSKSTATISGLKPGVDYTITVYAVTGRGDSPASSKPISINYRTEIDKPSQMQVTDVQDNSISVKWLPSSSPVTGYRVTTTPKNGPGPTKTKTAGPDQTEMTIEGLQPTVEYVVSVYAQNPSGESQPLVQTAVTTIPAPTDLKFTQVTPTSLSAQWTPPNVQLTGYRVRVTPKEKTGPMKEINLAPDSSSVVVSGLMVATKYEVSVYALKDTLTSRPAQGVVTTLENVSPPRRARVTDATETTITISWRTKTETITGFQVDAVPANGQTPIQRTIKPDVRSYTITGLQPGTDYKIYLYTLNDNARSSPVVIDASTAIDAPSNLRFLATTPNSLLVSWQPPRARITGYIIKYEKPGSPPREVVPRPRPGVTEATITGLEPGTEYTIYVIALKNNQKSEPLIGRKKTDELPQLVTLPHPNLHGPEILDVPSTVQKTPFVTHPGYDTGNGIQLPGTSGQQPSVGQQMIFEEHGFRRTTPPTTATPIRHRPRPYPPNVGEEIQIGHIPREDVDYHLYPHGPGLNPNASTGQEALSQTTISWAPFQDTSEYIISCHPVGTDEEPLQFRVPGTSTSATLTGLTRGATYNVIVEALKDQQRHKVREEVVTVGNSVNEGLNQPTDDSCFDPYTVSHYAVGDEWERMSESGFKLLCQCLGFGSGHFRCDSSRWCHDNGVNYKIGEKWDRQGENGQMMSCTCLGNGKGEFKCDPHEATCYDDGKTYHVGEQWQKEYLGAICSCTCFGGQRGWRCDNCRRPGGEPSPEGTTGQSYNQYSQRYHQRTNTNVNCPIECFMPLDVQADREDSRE

B1: CspA on whole cells of GBS strain COH1 (compared with the cspA mutant TOH121) (protein)
chain: DSVINKPSDIAVEQQVKDSPTSIANETPTNNTSSALASTAQDNLVTKANNNSPTETQPVTEPHSQATETFSPAANQPVESTQEVSKTPLTKQNLAVKPTPAISKETPQNIDSNKIITVPKVWNTGYKGEGTVVAIIDSGLDTNHDALQLNDSTKAKYQNEQQMNAAKAKAGINYGKWYNNKVIFGHNYVDVNTELKEVKSTSHGMHVTSIATANPSKKDTNELIYGVAPEAQVMFMRVFSDEKRGTGPALYVKAIEDAVKLGADSINLSLGGANGSLVNADDRLIKALEMARLAGVSVVIAAGNDGTFGSGASKPSALYPDYGLVGSPSTAREAISVASYNNTTLVNKVFNIIGLENNKNLNNGLAAYADPKVSDKTFEVGKQYDYVFVGKGNDNDYKDKTLNGKIALIERGDITFTKKVVNAINHGAVGAIIFNNKAGEANLTMSLDPEASAIPAIFTQKEFGDVLAKNNYKIVFNNIKNKQANPNAGVLSDFSSWGLTADGQLKPDLSAPGGSIYAAINDNEYDMMSGTSMASPHVAGATALVKQYLLKEHPELKKGDIERTVKYLLMSTAKAHLNKDTGAYTSPRQQGAGIIDVAAAVQTGLYLTGGENNYGSVTLGNIKDKISFDVTVHNINKVAKDLHYTTYLNTDQVKDGFVTLAPQQLGTFTGKTIRIEPGQTKTITIDIDVSKYHDMLKKVMPNGYFLEGYVRFTDPVDGGEVLSIPYVGFKGEFQNLEVLEKSIYKLVANKEKGFYFQPKQTNEVPGSEDYTALMTTSSEPIYSTDGTSPIQLKALGSYKSIDGKWILQLEQKGQPHLAISPNDDQNQDAVALKGVFLRNFNNLRAKVYRADDVNLQKPLWVSAPQAGDKNYYSGNTENPKSTFLYDTEWKGTTTDGIPLEDGKYKYVLTYYSDVPGSKPQQMVFDITLDRQAPTLTTATYDKDRRIFKARPAVEHGESGIFREQVFYLKKDKDGHYNSVLRQKGEDGILVEDNKVFIKQEKDGSFILPKEVNDFSHVYYTVEDYAGNLVSAKLEDLINIGNKNGLVNVKVFSPELNSNVDIDFSYSVKDDKGNVIKKQHHGKDLNLLKLPFGTYTFDLFLYDEERANLISPQSVTVTISEKDSLKDVLFKVNLLKKAALLVEFDKLLPKGATVQLVTKTNTVVDLPKATYSPTDYGKNIPVGDYRLNVTLPSGYSTLENLDDLLVSVKEGQVNLTKLTLINKAPLINALAEQTDIISQPVFYNAGTHLKNNYLANLEKAQTLIKNRVEQTSIDNAIAALRESRQALNGKETDTSLLAKAILAETEIKGNYQFVNASPLSQSTYINQVQLAKNLLQKPNVTQSEVDKALENLDIAKNQLNGHETDYSGLHHMIIKANVLKQTSSKYQNASQFAKENYNNLIKKAELLLSNRQATQAQVEELLNQIKATEQELDGRDRVSSAENYSQSLNDNDSLNTTPINPPNQPQALIFKKGMTKESEVAQKRVLGVTSQTDNQKIKTNKLPKTGESTPKITYTILLFSLSMLGLATIKLKSIKRE
- degradation of the test substrate (Coomassie-stained SDS-PAGE or Western blotting) [1]: No difference in the cleavage of the test substrates was observed for all substrates except fibrinogen when the mutant and wild-type strains were compared
- fibrinogen degradation assay (SDS-PAGE of supernatant after 16 h with whole GBS) [2]: COH1 cleaved the minor species (corresponding to the lower band of the doublet) of the α subunit, while the mutant did not cleave fibrinogen under the conditions employed
- degradation of the test substrate (Coomassie-stained SDS-PAGE or Western blotting) [3]: No difference in the cleavage of the test substrates was observed for all substrates except fibrinogen when the mutant and wild-type strains were compared
- C5a protease activity (C5a-stimulated PMN adherence to gelatin-coated plastic after preincubating C5a with GBS) [4]: inactivation of CspA did not appear to have a detectable effect on C5a activity
